Several values for one entry are separate records, joined by “and”; a condition that tells them apart may be missing. Equal values may be shown once.
Tests used:
[1] = target: cynomolgus OX40R on activated cynomolgus monkey T cells / PBMCs (cynomolgus monkey); experiment: cell-based or functional assay
[2] = target: T1, commercially available fusion protein containing the extracellular domain of the murine OX40R (mouse, UniProt P47741 20-211); experiment: ELISA
T1 construct: extracellular domain; Bought; also called mouse OX40R fusion protein
T1 sequence (looked up): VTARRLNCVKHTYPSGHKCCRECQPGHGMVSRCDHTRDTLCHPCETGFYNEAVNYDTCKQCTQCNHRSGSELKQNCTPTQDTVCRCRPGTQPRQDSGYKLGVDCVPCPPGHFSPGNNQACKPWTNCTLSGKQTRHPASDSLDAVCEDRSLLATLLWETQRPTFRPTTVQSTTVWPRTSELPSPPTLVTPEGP

[3] = target: T2, OX40R extracellular and transmembrane domain fused to the intracellular domain of CD40, in 293 cells with an … (UniProt P43489 29-235; P25942 216-277, limits assumed); experiment: cell-based or functional assay
T2 sequence (looked up): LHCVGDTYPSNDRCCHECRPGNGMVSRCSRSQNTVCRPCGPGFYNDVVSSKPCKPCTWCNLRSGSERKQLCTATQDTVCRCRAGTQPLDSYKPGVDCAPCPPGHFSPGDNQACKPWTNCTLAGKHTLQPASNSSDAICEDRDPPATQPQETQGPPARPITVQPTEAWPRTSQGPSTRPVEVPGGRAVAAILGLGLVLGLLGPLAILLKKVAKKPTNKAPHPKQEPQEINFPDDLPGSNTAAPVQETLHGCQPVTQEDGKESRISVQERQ

[4] = target: T3, recombinant human OX40-CD40 fusion construct (amino acids 1-235 of OX40, 216-278 of CD40) expressed on 300-19 … (human, UniProt P43489 29-235; P25942 216-277); experiment: FACS saturation binding on OX40R+ 300-19 cells (N = 2)
T3 construct: range 1-235;range 216-278; also called OX40R+ 300-19 cells; OX40R transfected cells
T3 sequence (looked up): T2 sequence (looked up)
Protocol: (§1) OX40R-expressing cell lines (see below) or activated primary peripheral blood mononuclear cells (see below) were used to assess binding on both the human and cynomolgus OX40 receptors. Cells were harvested and washed (5×10⁵/tube) using wash buffer at RT°. The wash buffer consisted of PBS, 2% heat-inactivated fetal bovine serum (Hyclone, Logan, Utah) and 0.02% sodium azide (Sigma, St. Louis, Mo.). Next, 100 μl of various concentrations of antibody was added to the cells (starting at 30 ug/ml and using a 3-fold titration) diluted in wash buffer containing 0.005 mg/ml of cytocholasin B (Sigma, St. Louis, Mo.). The cells were gently rocked at RT° for 3 hours. Next, the cells were washed twice and resuspended in 0.5 ml/tube with cold wash buffer and 10,000 events were collected and analyzed using a Becton Dickinson FACSCalibur and CellQuest software (San Jose, Calif.).

[5] = target: T4, Biotinylated CD134-muIg (Ancell 513-030) (UniProt P43489 29-214, biotinylated); experiment: Biacore (SPR), biotinylated CD134-muIg captured on streptavidin, antibody in solution
T4 construct: extracellular domain; Captured on streptavidin on a CM5 chip; also called OX40R extracellular domain fusion protein (Biacore ligand); not shown: murine Ig part (muIg) of the bought fusion
T4 sequence (looked up): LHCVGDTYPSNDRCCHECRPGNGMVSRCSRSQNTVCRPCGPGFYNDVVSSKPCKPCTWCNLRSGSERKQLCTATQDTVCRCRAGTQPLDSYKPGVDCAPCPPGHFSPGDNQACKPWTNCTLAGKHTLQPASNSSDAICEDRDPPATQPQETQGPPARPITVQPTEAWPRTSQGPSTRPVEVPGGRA
Protocol: Biotinylated CD134-muIg (Ancell 513-030), at a concentration of 10 μg/ml at a flow rate of 5 μl/min was manually injected over Flow cells-2, 3 and 4 to achieve 3 surface densities: Fc-2=150RU, Fc-3=375RU and Fc-4=580RU. The different density surfaces were prepared to monitor the possibility of mass transport limited binding during association phase and rebinding during dissociation, both artifacts that are influenced by surface density that must be avoided.

[6] = target: T5, human OX40R on activated primary human T cells (human, UniProt P43489 29-277); experiment: FACS saturation binding on CD3/CD28 stimulated human T cells (N = 4)
T5 construct: whole, on cells; also called CD3/CD28 stimulated T cells; human PBMC's stimulated with anti-CD3 and anti-CD28
T5 sequence (looked up): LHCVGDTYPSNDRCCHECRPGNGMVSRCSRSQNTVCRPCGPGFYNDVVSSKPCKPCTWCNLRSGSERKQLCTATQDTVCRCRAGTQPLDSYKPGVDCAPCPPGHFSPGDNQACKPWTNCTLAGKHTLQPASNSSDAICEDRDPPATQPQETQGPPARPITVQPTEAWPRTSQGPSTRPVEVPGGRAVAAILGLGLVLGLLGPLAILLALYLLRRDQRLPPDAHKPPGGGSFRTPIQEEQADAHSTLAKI
Protocol: as §1
Human whole blood was collected into heparinized syringes (Baxter; Deerfield, Ill.) and then immediately transferred to Sigma Accuspin tubes (Sigma, St. Louis, Mo.) for the isolation of peripheral blood mononuclear cells (PBMC) as described by the manufacturer. The PBMC were washed twice with DPBS and T lymphocytes were isolated using a T cell purification column as described by the manufacturer (R & D Systems, Minneapolis, Minn.). […]

B1: human monoclonal antibody 11D4 (antibody, V domains shown)
VH: EVQLVESGGGLVQPGGSLRLSCAASGFTFSSYSMNWVRQAPGKGLEWVSYISSSSSTIDYADSVKGRFTISRDNAKNSLYLQMNSLRDEDTAVYYCARESGWYLFDYWGQGTLVTVSS
VL: DIQMTQSPSSLSASVGDRVTITCRASQGISSWLAWYQQKPEKAPKSLIYAASSLQSGVPSRFSGSGSGTDFTLTISSLQPEDFATYYCQQYNSYPPTFGGGTKVEIKR
notes: IgG2 heavy chain, kappa light chain; allotypes G2(n-) and Km3; Alexa Fluor 647 conjugate was used in the species cross-reactivity FACS
[1]
  EC50 of anti-CD3 induced IL-2 production by cynomolgus T cells, donor 2325: 2 ng/mL
  EC50 of anti-CD3 induced IL-2 production by cynomolgus T cells, donor 32081: 7 ng/mL
  EC50 of anti-CD3 induced IL-2 production by cynomolgus T cells, donor 32750: 7 ng/mL
  EC50 of anti-CD3 induced IL-2 production by cynomolgus T cells, donor 32842: 11 ng/mL
  EC50 of anti-CD3 induced IL-2 production by cynomolgus T cells, donor 33062: 28 ng/mL
  EC50 of anti-CD3 induced IL-2 production by cynomolgus T cells, donor 33080: 31 ng/mL
  EC50 of anti-CD3 induced IL-2 production by cynomolgus T cells, donor 33081: 8 ng/mL
[2]
  binding result: no binding
[3]
  In vitro stimulation of OX40R+ transfected cells (luciferase) (EC50; N = 4): 0.33 µg/ml and 2.2 nM

B2: human monoclonal antibody 18D8 (antibody, human IgG2, kappa, V domains shown)
VH: EVQLVESGGGLVQPGRSLRLSCAASGFTFDDYAMHWVRQAPGKGLEWVSGISWNSGSIGYADSVKGRFTISRDNAKNSLYLQMNSLRAEDTALYYCAKDQSTADYYFYYGMDVWGQGTTVTVSS
VL: EIVVTQSPATLSLSPGERATLSCRASQSVSSYLAWYQQKPGQAPRLLIYDASNRATGIPARFSGSGSGTDFTLTISSLEPEDFAVYYCQQRSNWPTFGQGTKVEIKR
[4]
  EC50: 0.24 µg/mL and 1.66 nM
[5]
  Kd: 0.49 µg/mL and 3.38 nM
  koff: 0.00029 s⁻¹
[6]
  EC50: 1.06 µg/mL and 7.3 nM

Reference: US20190135932A1 (Pfizer, published 2019)
